Measurements: PMC6531875

Biological target: Csk (UniProt P41240)
Test: anti-Flag co-IP, anti-Myc blot
Settings: reference: Myc-Cbp wild type; sites Y317

binding against the reference: weaker
Substance: Cbp (Csk binding protein, Cbp/PAG1) (from UniProt Q9NWQ8) Myc-Cbp Y317F
